Laboratory results: the supplement of paper PMC9233669
Variants at the floor of the assay were thinned out.

Assays:
biotinyl-Val-oxazolone = test: self-aminoacylation, catalytic enhancement (BVO) (fold over background); higher = more active; k-Seq, kA / k0A0; sequences stand for … in GGGAAUGGAUCCACAUCUACGAAUUC…UUCACUGCAGACUUGACGAAGCUG
Method in brief: (§1)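 Mutagenized RNA pools with a 21-nt variable region (0.43 μM) reacted with each biotinyl-aminoacyl-oxazolone at 2–1250 μM. Reactions ran in 50 μL HEPES/NaCl/KCl/MgCl2/CaCl2 buffer with 5% acetonitrile, pH 6.9–7.0, for 90 minutes at room temperature. Streptavidin-captured RNA was quantified by triplicate qPCR and Illumina sequencing, and per-sequence fraction reacted was fit to a pseudo-first-order model with 1000 bootstraps. Catalytic enhancement is median kA divided by the uncatalyzed rate, the low-activity peak of a bimodal Gaussian fit.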

biotinyl-Leu-oxazolone = test: self-aminoacylation, catalytic enhancement (BLO) (fold over background); higher = more active; k-Seq, kA / k0A0; sequences stand for … in GGGAAUGGAUCCACAUCUACGAAUUC…UUCACUGCAGACUUGACGAAGCUG
Method in brief: as §1

biotinyl-Trp-oxazolone = test: self-aminoacylation, catalytic enhancement (BWO) (fold over background); higher = more active; k-Seq, kA / k0A0; sequences stand for … in GGGAAUGGAUCCACAUCUACGAAUUC…UUCACUGCAGACUUGACGAAGCUG
Method in brief: as §1

biotinyl-Phe-oxazolone = test: self-aminoacylation, catalytic enhancement (BFO) (fold over background); higher = more active; k-Seq, kA / k0A0; sequences stand for … in GGGAAUGGAUCCACAUCUACGAAUUC…UUCACUGCAGACUUGACGAAGCUG
Method in brief: as §1

biotinyl-Met-oxazolone = test: self-aminoacylation, catalytic enhancement (BMO) (fold over background); higher = more active; k-Seq, kA / k0A0; sequences stand for … in GGGAAUGGAUCCACAUCUACGAAUUC…UUCACUGCAGACUUGACGAAGCUG
Method in brief: as §1

biotinyl-Ile-oxazolone = test: self-aminoacylation, catalytic enhancement (BIO) (fold over background); higher = more active; k-Seq, kA / k0A0; sequences stand for … in GGGAAUGGAUCCACAUCUACGAAUUC…UUCACUGCAGACUUGACGAAGCUG
Method in brief: as §1

Row | Sequence | self-aminoacylation (biotinyl-Val-oxazolone) | self-aminoacylation (biotinyl-Leu-oxazolone) | self-aminoacylation (biotinyl-Trp-oxazolone) | self-aminoacylation (biotinyl-Phe-oxazolone) | self-aminoacylation (biotinyl-Met-oxazolone) | self-aminoacylation (biotinyl-Ile-oxazolone)
1 | AUUCACCAAGGUCCUCGGGUG [Fam2.2 aminoacylation ribozyme variant] | 5.39 | 11 | 8.35 | 76.6 | 8.8 | 4.66
2 | AUUCACCAUGGUCAUCGGGUG [Fam2.2 aminoacylation ribozyme variant] | 6.37 | 15.6 | 10.5 | 69.7 | 10.3 | 6.21
3 | AUUCACCCAGGACAUCGGGUG [Fam2.2 aminoacylation ribozyme variant] | 3.27 | 2.83 | 3.3 | 30.2 | 2.8 | 2.97
4 | AUUCACCCAGGUCAUCAGGUG [Fam2.2 aminoacylation ribozyme variant] | 1.01 | 1.08 | 0.804 | 0.632 | 1 | 0.991
5 | AUUCACCCAGGUCAUCGGGAG [Fam2.2 aminoacylation ribozyme variant] | 1.48 | 1.28 | 1.47 | 0.732 | 1.28 | 1.22
6 | AUUCACCCAGGUCAUCGGGUA [Fam2.2 aminoacylation ribozyme variant] | 2.27 | 2.76 | 2.93 | 12.7 | 2.51 | 2.25
7 | AUUCACCCAGGUCAUGGGGUG [Fam2.2 aminoacylation ribozyme variant] | 5.23 | 13.8 | 8.21 | 67.1 | 10.2 | 5.18
8 | AUUCACCCAGGUGAUCGGGUG [Fam2.2 aminoacylation ribozyme variant] | 3.59 | 3.44 | 4.5 | 25.7 | 4.45 | 3.64
9 | AUUCACCCAGUUCAUCGGGUG [Fam2.2 aminoacylation ribozyme variant] | 2.72 | 2.6 | 2.33 | 10.8 | 2.52 | 2.48
10 | AUUCACCCGGGUCAUCGGGUG [Fam2.2 aminoacylation ribozyme variant] | 4.44 | 6.18 | 6.14 | 42.6 | 5.16 | 4.1
11 | AUUCACCGAGGUCAACGGGUG [Fam2.2 aminoacylation ribozyme variant] | 3.27 | 8.52 | 5.14 | 36.9 | 5.75 | 3.52
12 | AUUCACCGAGGUCAUCGGCUG [Fam2.2 aminoacylation ribozyme variant] | 2.26 | 2.38 | 1.93 | 12.4 | 2.26 | 2.29
13 | AUUCACCGAGGUCAUCGGGCG [Fam2.2 aminoacylation ribozyme variant] | 3.86 | 3.66 | 2.96 | 24.4 | 3.34 | 3.19
14 | AUUCACCGAGGUCAUUGGGUG [Fam2.2 aminoacylation ribozyme variant] | 3.88 | 8.02 | 5.88 | 42.6 | 6.99 | 3.83
15 | AUUCACCGAGGUCCUCGGGUG [Fam2.2 aminoacylation ribozyme variant] | 6.63 | 14.6 | 9.2 | 84.6 | 11.3 | 6.76
16 | AUUCACCGAGGUCUUCGGGUG [Fam2.2 aminoacylation ribozyme variant] | 4.69 | 7.58 | 6.52 | 40.7 | 4.94 | 3.97
17 | AUUCACCUAAAUCAUCGGGUG [Fam2.2 aminoacylation ribozyme variant] | 2.56 | 6.91 | 5.55 | 34.6 | 5.3 | 3.11
18 | AUUCACCUAAGACAUCGGGUG [Fam2.2 aminoacylation ribozyme variant] | 3.13 | 5.92 | 4.54 | 33.4 | 4.49 | 3.05
19 | AUUCACCUAAGUAAUCGGGUG [Fam2.2 aminoacylation ribozyme variant] | 2.15 | 5.7 | 4.33 | 24.9 | 4.37 | 2.81
20 | AUUCACCUAAGUCAUCAGGUG [Fam2.2 aminoacylation ribozyme variant] | 2.07 | 3.53 | 3.31 | 11 | 3.1 | 2.23
21 | AUUCACCUAAGUCAUCGCGUG [Fam2.2 aminoacylation ribozyme variant] | 7.56 | 17.7 | 15.7 | 110 | 13.4 | 6.77
22 | AUUCACCUAAGUCAUCGGGUC [Fam2.2 aminoacylation ribozyme variant] | 1.53 | 1.13 | 1.78 | 1.31 | 1.42 | 1.01

Row | Sequence | self-aminoacylation (biotinyl-Val-oxazolone) | self-aminoacylation (biotinyl-Leu-oxazolone) | self-aminoacylation (biotinyl-Trp-oxazolone) | self-aminoacylation (biotinyl-Phe-oxazolone) | self-aminoacylation (biotinyl-Met-oxazolone) | self-aminoacylation (biotinyl-Ile-oxazolone)
23 | AUUCACCUAAGUGAUCGGGUG [Fam2.2 aminoacylation ribozyme variant] | 1.77 | 2.94 | 2 | 9.9 | 2.25 | 1.65
24 | AUUCACCUAAGUUAUCGGGUG [Fam2.2 aminoacylation ribozyme variant] | 3.96 | 8.59 | 5.61 | 51 | 6.15 | 3.83
25 | AUUCACCUACGUAAUCGGGUG [Fam2.2 aminoacylation ribozyme variant] | 3.4 | 9.03 | 5.66 | 45.9 | 6.45 | 3.09
26 | AUUCACCUACGUCAUCGGGUA [Fam2.2 aminoacylation ribozyme variant] | 1.61 | 1.96 | 2.18 | 0.967 | 1.94 | 1.58
27 | AUUCACCUACGUUAUCGGGUG [Fam2.2 aminoacylation ribozyme variant] | 4.17 | 9.22 | 6.51 | 63.3 | 7.55 | 3.98
28 | AUUCACCUAGAUCAUCGAGUG [Fam2.2 aminoacylation ribozyme variant] | 1.32 | 1.64 | 0.729 | 1.68 | 1.33 | 1.14
29 | AUUCACCUAGAUCAUCGGCUG [Fam2.2 aminoacylation ribozyme variant] | 1.89 | 1.81 | 1.63 | 0.62 | 1.56 | 1.69
30 | AUUCACCUAGAUCAUCGGGCG [Fam2.2 aminoacylation ribozyme variant] | 1.93 | 2.33 | 1.28 | 8.81 | 3.12 | 1.96
31 | AUUCACCUAGAUCAUCGGGUG [Fam2.2 aminoacylation ribozyme variant] | 2.22 | 3.47 | 2.95 | 14.9 | 2.8 | 2.1
32 | AUUCACCUAGAUCAUCGGGUU [Fam2.2 aminoacylation ribozyme variant] | 1.11 | 1.17 | 1.26 | 0.554 | 0.967 | 1.01
33 | AUUCACCUAGAUCAUCGUGUG [Fam2.2 aminoacylation ribozyme variant] | 0.999 | 1.38 | 1.06 | 1.49 | 1.36 | 0.956
34 | AUUCACCUAGAUCUUCGGGUG [Fam2.2 aminoacylation ribozyme variant] | 2.54 | 3.75 | 2.8 | 12.3 | 3.09 | 2.18
35 | AUUCACCUAGAUGAUCGGGUG [Fam2.2 aminoacylation ribozyme variant] | 2.62 | 2.71 | 3.34 | 13.7 | 2.77 | 2.32
36 | AUUCACCUAGAUUAUCGGGUG [Fam2.2 aminoacylation ribozyme variant] | 4.18 | 9 | 6.65 | 53.7 | 7.21 | 4.48
37 | AUUCACCUAGCCCAUCGGGUG [Fam2.2 aminoacylation ribozyme variant] | 2.58 | 3.35 | 3.11 | 13.6 | 2.92 | 2
38 | AUUCACCUAGCGCAUCGGGUG [Fam2.2 aminoacylation ribozyme variant] | 1.68 | 2.96 | 2.14 | 10 | 1.72 | 1.55
39 | AUUCACCUAGCUCAGCGGGUG [Fam2.2 aminoacylation ribozyme variant] | 2.09 | 3.49 | 2.83 | 10.6 | 2.68 | 2.08
40 | AUUCACCUAGCUCAUCGCGUG [Fam2.2 aminoacylation ribozyme variant] | 3.28 | 6.1 | 5.18 | 34.7 | 4.26 | 2.98
41 | AUUCACCUAGCUCAUCGGCUG [Fam2.2 aminoacylation ribozyme variant] | 1.96 | 2.05 | 1.25 | 3.23 | 1.92 | 1.67
42 | AUUCACCUAGCUCAUCUGGUG [Fam2.2 aminoacylation ribozyme variant] | 1.05 | 1.52 | 0.967 | 5.43 | 1.3 | 1.17
43 | AUUCACCUAGGACACCGGGUG [Fam2.2 aminoacylation ribozyme variant] | 3.63 | 3.94 | 3.19 | 15.6 | 3.51 | 3.57
